Measured values: paper doi:10.1101/2021.03.25.436804 (bioRxiv, 2021)
Blank lines part the entries; values can stand above or below the molecule they belong to.

How the values were obtained:
Assay in all cases: BLI
[1] = molecular target: NRP2 a2b1b2 (human neuropilin 2 residues 145-595, monoFc-tagged) (human) (UniProt O60462)
[2] = molecular target: monoFc-tagged NRP2 (human neuropilin 2 residues 23-595, a1a2b1b2) (human) (UniProt O60462)
[3] = molecular target: soluble ectodomain of the HCMV Pentamer (strain Towne) (Human cytomegalovirus strain Towne, UniProt P17176;F5HCH8;P16837;F5HCP3;F5HET4)

Chain of monoFc-tagged NRP2 (human neuropilin 2 residues 23-595, a1a2b1b2) (human) (O60462 23-595): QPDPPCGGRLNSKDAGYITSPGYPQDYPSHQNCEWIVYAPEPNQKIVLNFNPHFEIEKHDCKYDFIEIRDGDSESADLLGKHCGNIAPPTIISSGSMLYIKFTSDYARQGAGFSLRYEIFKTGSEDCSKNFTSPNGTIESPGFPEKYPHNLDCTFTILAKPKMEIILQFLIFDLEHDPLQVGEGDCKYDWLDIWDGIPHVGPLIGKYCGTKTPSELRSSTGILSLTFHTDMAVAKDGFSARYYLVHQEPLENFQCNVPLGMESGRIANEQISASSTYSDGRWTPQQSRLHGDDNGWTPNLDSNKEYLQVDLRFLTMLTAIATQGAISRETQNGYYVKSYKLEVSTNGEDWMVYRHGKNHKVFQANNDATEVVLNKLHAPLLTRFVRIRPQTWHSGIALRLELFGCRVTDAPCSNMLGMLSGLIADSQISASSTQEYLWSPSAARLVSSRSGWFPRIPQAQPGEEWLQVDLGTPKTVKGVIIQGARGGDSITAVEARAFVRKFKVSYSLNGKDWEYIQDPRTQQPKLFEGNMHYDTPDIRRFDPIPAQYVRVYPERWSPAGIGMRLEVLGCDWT
Chain of NRP2 a2b1b2 (human neuropilin 2 residues 145-595, monoFc-tagged) (human) (O60462 145-595): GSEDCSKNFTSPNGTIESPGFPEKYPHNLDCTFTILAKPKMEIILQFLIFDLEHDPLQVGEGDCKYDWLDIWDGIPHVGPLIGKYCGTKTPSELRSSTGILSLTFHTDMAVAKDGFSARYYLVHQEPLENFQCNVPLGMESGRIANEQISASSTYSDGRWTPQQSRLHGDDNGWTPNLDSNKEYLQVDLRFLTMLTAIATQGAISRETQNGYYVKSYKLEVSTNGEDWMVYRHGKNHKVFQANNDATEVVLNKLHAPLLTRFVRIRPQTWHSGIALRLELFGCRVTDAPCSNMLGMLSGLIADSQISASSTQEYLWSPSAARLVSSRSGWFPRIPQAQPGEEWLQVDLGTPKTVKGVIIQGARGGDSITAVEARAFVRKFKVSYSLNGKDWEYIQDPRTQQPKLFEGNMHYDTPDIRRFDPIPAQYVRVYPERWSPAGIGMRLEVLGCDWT

Molecule: soluble ectodomain of the HCMV Pentamer (strain Towne) (from UniProt P17176 24-718) (complex)
Kd [1]: 7.9 nM | Kd [2]: 2.2 nM

binding result [3]: binds
B1: 1-32 IgG (antibody, V domains shown)
VH: QVKLVESGGGVVQPGRSLRLSCAGSGFAFDNYAMHWVRQAPGKGLEWVAVISLEGRNKYYAGPAKGRFSISRDNSRNTVHLQMNSLRPEDTAVYFCARDMRYYYDSNGHYRNRYGMDVWGQGTTVIVSS
VL: DIQMTQSPSSLSASVGDSVTITCQASQDINQFVSWYQQKPGKPPKLLIYDASNLESGVPSRFSGSGSGTHFTFTISSLQPDDIATYYCQQYENLFTFGPGTKVDIK
